These results are taken from patent US20180071366A1.

In test [1] the target is recombinant human amylin 3 receptor (hAMYR3) (human), P30988. Briefly: cell-based or functional assay.
Test [2] concerns the target recombinant human calcitonin receptor (hCT-R) (human), P30988. Briefly: cell-based or functional assay.

Numbered stars: 1 amine (or outer) side, 2 acyl side, 3 side chain; on linkers, the order of the positions; unused ones are H or OH. Bridge positions count the residues as written; N and C are the ends. Square brackets hold non-standard residues; d marks the D form. * marks the point of attachment. C20 diacid = O=C(O)CCCCCCCCCCCCCCCCCCC(=O)*; γGlu = O=C(O)[C@H](CCC(=O)[*:2])N[*:1]; Hyp = O=C(O)[C@@H]1C[C@@H](O)CN1; NMeI = CC[C@H](C)[C@H](NC)C(=O)O; Dab = NCC[C@H](N)C(=O)O; Sar = CNCC(=O)O

recombinant human calcitonin receptor (hCT-R) (human), P30988, sequence (P30988 25-474): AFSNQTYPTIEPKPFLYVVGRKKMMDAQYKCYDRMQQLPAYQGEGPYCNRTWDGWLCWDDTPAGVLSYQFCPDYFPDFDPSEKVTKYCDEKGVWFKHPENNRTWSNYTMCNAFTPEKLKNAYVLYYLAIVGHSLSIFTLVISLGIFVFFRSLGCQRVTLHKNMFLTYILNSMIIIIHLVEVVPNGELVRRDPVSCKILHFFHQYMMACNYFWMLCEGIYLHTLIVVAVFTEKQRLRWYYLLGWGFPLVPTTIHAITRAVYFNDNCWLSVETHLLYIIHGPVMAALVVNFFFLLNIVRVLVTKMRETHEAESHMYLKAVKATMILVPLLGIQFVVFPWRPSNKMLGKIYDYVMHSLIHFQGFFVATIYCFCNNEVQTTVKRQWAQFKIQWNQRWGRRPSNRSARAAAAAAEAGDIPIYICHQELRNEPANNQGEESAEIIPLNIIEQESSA
recombinant human amylin 3 receptor (hAMYR3) (human), P30988, sequence (P30988 25-474, chain 1 of 2): as the sequence (P30988 25-474) above
recombinant human amylin 3 receptor (hAMYR3) (human), P30988, sequence (O60896 24-148, chain 2 of 2, further chain): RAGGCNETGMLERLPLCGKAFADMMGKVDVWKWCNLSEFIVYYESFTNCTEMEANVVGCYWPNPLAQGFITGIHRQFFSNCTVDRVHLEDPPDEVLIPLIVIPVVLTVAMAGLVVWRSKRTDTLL

B1: Compound 2 (peptide)
peptide: {C20 diacid-γGlu}-RDGTAT[Dab]ATERLAHFLQRSSF[Sar]A[NMeI]LSSTEVGSNT[Hyp]-NH2
modifications: lactam 2-7
SMILES: CC[C@H](C)[C@@H](C(=O)N[C@@H](CC(C)C)C(=O)N[C@@H](CO)C(=O)N[C@@H](CO)C(=O)N[C@H](C(=O)N[C@@H](CCC(=O)O)C(=O)N[C@H](C(=O)NCC(=O)N[C@@H](CO)C(=O)N[C@@H](CC(N)=O)C(=O)N[C@H](C(=O)N1C[C@H](O)C[C@H]1C(N)=O)[C@@H](C)O)C(C)C)[C@@H](C)O)N(C)C(=O)[C@H](C)NC(=O)CN(C)C(=O)[C@H](Cc1ccccc1)NC(=O)[C@H](CO)NC(=O)[C@H](CO)NC(=O)[C@H](CCCNC(=N)N)NC(=O)[C@H](CCC(N)=O)NC(=O)[C@H](CC(C)C)NC(=O)[C@H](Cc1ccccc1)NC(=O)[C@H](Cc1c[nH]cn1)NC(=O)[C@H](C)NC(=O)[C@H](CC(C)C)NC(=O)[C@H](CCCNC(=N)N)NC(=O)[C@H](CCC(=O)O)NC(=O)[C@@H](NC(=O)[C@H](C)NC(=O)[C@@H]1CCNC(=O)C[C@H](NC(=O)[C@H](CCCNC(=N)N)NC(=O)CC[C@H](NC(=O)CCCCCCCCCCCCCCCCCCC(=O)O)C(=O)O)C(=O)NCC(=O)N[C@@H]([C@@H](C)O)C(=O)N[C@@H](C)C(=O)N[C@@H]([C@@H](C)O)C(=O)N1)[C@@H](C)O
As to B1, the hAMYR3 EC50 [nM] (cAMP formation, 1321N1 cells expressing hAMYR3) in test [1] was 0.032 nM. Further, the hCT-R EC50 [nM] (cAMP formation, 1321N1 cells expressing hCT-R) in test [2] was 0.105 nM.

B2: Compound 14 (peptide)
peptide: {C20 diacid-γGlu}-RDGTASKATERLAHFLQRSSF[Sar]A[NMeI]LSSTEVGSNT[Hyp]-NH2
modifications: lactam 2-7
SMILES: CC[C@H](C)[C@@H](C(=O)N[C@@H](CC(C)C)C(=O)N[C@@H](CO)C(=O)N[C@@H](CO)C(=O)N[C@H](C(=O)N[C@@H](CCC(=O)O)C(=O)N[C@H](C(=O)NCC(=O)N[C@@H](CO)C(=O)N[C@@H](CC(N)=O)C(=O)N[C@H](C(=O)N1C[C@H](O)C[C@H]1C(N)=O)[C@@H](C)O)C(C)C)[C@@H](C)O)N(C)C(=O)[C@H](C)NC(=O)CN(C)C(=O)[C@H](Cc1ccccc1)NC(=O)[C@H](CO)NC(=O)[C@H](CO)NC(=O)[C@H](CCCNC(=N)N)NC(=O)[C@H](CCC(N)=O)NC(=O)[C@H](CC(C)C)NC(=O)[C@H](Cc1ccccc1)NC(=O)[C@H](Cc1c[nH]cn1)NC(=O)[C@H](C)NC(=O)[C@H](CC(C)C)NC(=O)[C@H](CCCNC(=N)N)NC(=O)[C@H](CCC(=O)O)NC(=O)[C@@H](NC(=O)[C@H](C)NC(=O)[C@@H]1CCCCNC(=O)C[C@H](NC(=O)[C@H](CCCNC(=N)N)NC(=O)CC[C@H](NC(=O)CCCCCCCCCCCCCCCCCCC(=O)O)C(=O)O)C(=O)NCC(=O)N[C@@H]([C@@H](C)O)C(=O)N[C@@H](C)C(=O)N[C@@H](CO)C(=O)N1)[C@@H](C)O
B2: the hAMYR3 EC50 [nM] (cAMP formation, 1321N1 cells expressing hAMYR3) in test [1] was 0.108 nM. For the same molecule, the hCT-R EC50 [nM] (cAMP formation, 1321N1 cells expressing hCT-R) in test [2] is 0.386 nM.

B3: Compound 15 (peptide)
peptide: {C20 diacid-γGlu}-RDGTATKATQRLAHFLQRSSF[Sar]A[NMeI]PSSTEVGSNT[Hyp]-NH2
modifications: lactam 2-7
SMILES: CC[C@H](C)[C@@H](C(=O)N1CCC[C@H]1C(=O)N[C@@H](CO)C(=O)N[C@@H](CO)C(=O)N[C@H](C(=O)N[C@@H](CCC(=O)O)C(=O)N[C@H](C(=O)NCC(=O)N[C@@H](CO)C(=O)N[C@@H](CC(N)=O)C(=O)N[C@H](C(=O)N1C[C@H](O)C[C@H]1C(N)=O)[C@@H](C)O)C(C)C)[C@@H](C)O)N(C)C(=O)[C@H](C)NC(=O)CN(C)C(=O)[C@H](Cc1ccccc1)NC(=O)[C@H](CO)NC(=O)[C@H](CO)NC(=O)[C@H](CCCNC(=N)N)NC(=O)[C@H](CCC(N)=O)NC(=O)[C@H](CC(C)C)NC(=O)[C@H](Cc1ccccc1)NC(=O)[C@H](Cc1c[nH]cn1)NC(=O)[C@H](C)NC(=O)[C@H](CC(C)C)NC(=O)[C@H](CCCNC(=N)N)NC(=O)[C@H](CCC(N)=O)NC(=O)[C@@H](NC(=O)[C@H](C)NC(=O)[C@@H]1CCCCNC(=O)C[C@H](NC(=O)[C@H](CCCNC(=N)N)NC(=O)CC[C@H](NC(=O)CCCCCCCCCCCCCCCCCCC(=O)O)C(=O)O)C(=O)NCC(=O)N[C@@H]([C@@H](C)O)C(=O)N[C@@H](C)C(=O)N[C@@H]([C@@H](C)O)C(=O)N1)[C@@H](C)O
Regarding B3, the hAMYR3 EC50 [nM] (cAMP formation, 1321N1 cells expressing hAMYR3) in test [1] came out at 0.017 nM. The hCT-R EC50 [nM] (cAMP formation, 1321N1 cells expressing hCT-R) in test [2] stood at 0.056 nM.

B4: Compound 16 (peptide)
peptide: {C20 diacid-γGlu}-RDGTATKATQRLAHFLQRSSF[Sar]A[NMeI]LSSTEVGSNT[Hyp]-NH2
modifications: lactam 2-7
SMILES: CC[C@H](C)[C@@H](C(=O)N[C@@H](CC(C)C)C(=O)N[C@@H](CO)C(=O)N[C@@H](CO)C(=O)N[C@H](C(=O)N[C@@H](CCC(=O)O)C(=O)N[C@H](C(=O)NCC(=O)N[C@@H](CO)C(=O)N[C@@H](CC(N)=O)C(=O)N[C@H](C(=O)N1C[C@H](O)C[C@H]1C(N)=O)[C@@H](C)O)C(C)C)[C@@H](C)O)N(C)C(=O)[C@H](C)NC(=O)CN(C)C(=O)[C@H](Cc1ccccc1)NC(=O)[C@H](CO)NC(=O)[C@H](CO)NC(=O)[C@H](CCCNC(=N)N)NC(=O)[C@H](CCC(N)=O)NC(=O)[C@H](CC(C)C)NC(=O)[C@H](Cc1ccccc1)NC(=O)[C@H](Cc1c[nH]cn1)NC(=O)[C@H](C)NC(=O)[C@H](CC(C)C)NC(=O)[C@H](CCCNC(=N)N)NC(=O)[C@H](CCC(N)=O)NC(=O)[C@@H](NC(=O)[C@H](C)NC(=O)[C@@H]1CCCCNC(=O)C[C@H](NC(=O)[C@H](CCCNC(=N)N)NC(=O)CC[C@H](NC(=O)CCCCCCCCCCCCCCCCCCC(=O)O)C(=O)O)C(=O)NCC(=O)N[C@@H]([C@@H](C)O)C(=O)N[C@@H](C)C(=O)N[C@@H]([C@@H](C)O)C(=O)N1)[C@@H](C)O
Regarding B4, the hAMYR3 EC50 [nM] (cAMP formation, 1321N1 cells expressing hAMYR3) in test [1] was 0.035 nM. The hCT-R EC50 [nM] (cAMP formation, 1321N1 cells expressing hCT-R) in test [2] amounted to 0.043 nM.

B5: Compound 12 (peptide)
peptide: {C20 diacid-γGlu}-RDGEATKATERLAHFLQRSSF[Sar]A[NMeI]LSSTEVGSNT[Hyp]-NH2
modifications: lactam 2-7
SMILES: CC[C@H](C)[C@@H](C(=O)N[C@@H](CC(C)C)C(=O)N[C@@H](CO)C(=O)N[C@@H](CO)C(=O)N[C@H](C(=O)N[C@@H](CCC(=O)O)C(=O)N[C@H](C(=O)NCC(=O)N[C@@H](CO)C(=O)N[C@@H](CC(N)=O)C(=O)N[C@H](C(=O)N1C[C@H](O)C[C@H]1C(N)=O)[C@@H](C)O)C(C)C)[C@@H](C)O)N(C)C(=O)[C@H](C)NC(=O)CN(C)C(=O)[C@H](Cc1ccccc1)NC(=O)[C@H](CO)NC(=O)[C@H](CO)NC(=O)[C@H](CCCNC(=N)N)NC(=O)[C@H](CCC(N)=O)NC(=O)[C@H](CC(C)C)NC(=O)[C@H](Cc1ccccc1)NC(=O)[C@H](Cc1c[nH]cn1)NC(=O)[C@H](C)NC(=O)[C@H](CC(C)C)NC(=O)[C@H](CCCNC(=N)N)NC(=O)[C@H](CCC(=O)O)NC(=O)[C@@H](NC(=O)[C@H](C)NC(=O)[C@@H]1CCCCNC(=O)C[C@H](NC(=O)[C@H](CCCNC(=N)N)NC(=O)CC[C@H](NC(=O)CCCCCCCCCCCCCCCCCCC(=O)O)C(=O)O)C(=O)NCC(=O)N[C@@H](CCC(=O)O)C(=O)N[C@@H](C)C(=O)N[C@@H]([C@@H](C)O)C(=O)N1)[C@@H](C)O
As for B5, the hAMYR3 EC50 [nM] (cAMP formation, 1321N1 cells expressing hAMYR3) in test [1] was 0.999 nM. The hCT-R EC50 [nM] (cAMP formation, 1321N1 cells expressing hCT-R) in test [2] is 0.893 nM.

B6: Compound 17 (peptide)
peptide: {C20 diacid-γGlu}-RDGTATKATERLAHFLQRSSF[Sar]A[NMeI]PSSTEVGSNT[Hyp]-NH2
modifications: lactam 2-7
SMILES: CC[C@H](C)[C@@H](C(=O)N1CCC[C@H]1C(=O)N[C@@H](CO)C(=O)N[C@@H](CO)C(=O)N[C@H](C(=O)N[C@@H](CCC(=O)O)C(=O)N[C@H](C(=O)NCC(=O)N[C@@H](CO)C(=O)N[C@@H](CC(N)=O)C(=O)N[C@H](C(=O)N1C[C@H](O)C[C@H]1C(N)=O)[C@@H](C)O)C(C)C)[C@@H](C)O)N(C)C(=O)[C@H](C)NC(=O)CN(C)C(=O)[C@H](Cc1ccccc1)NC(=O)[C@H](CO)NC(=O)[C@H](CO)NC(=O)[C@H](CCCNC(=N)N)NC(=O)[C@H](CCC(N)=O)NC(=O)[C@H](CC(C)C)NC(=O)[C@H](Cc1ccccc1)NC(=O)[C@H](Cc1c[nH]cn1)NC(=O)[C@H](C)NC(=O)[C@H](CC(C)C)NC(=O)[C@H](CCCNC(=N)N)NC(=O)[C@H](CCC(=O)O)NC(=O)[C@@H](NC(=O)[C@H](C)NC(=O)[C@@H]1CCCCNC(=O)C[C@H](NC(=O)[C@H](CCCNC(=N)N)NC(=O)CC[C@H](NC(=O)CCCCCCCCCCCCCCCCCCC(=O)O)C(=O)O)C(=O)NCC(=O)N[C@@H]([C@@H](C)O)C(=O)N[C@@H](C)C(=O)N[C@@H]([C@@H](C)O)C(=O)N1)[C@@H](C)O
On to B6, for which the hAMYR3 EC50 [nM] (cAMP formation, 1321N1 cells expressing hAMYR3) in test [1] is 0.025 nM. The hCT-R EC50 [nM] (cAMP formation, 1321N1 cells expressing hCT-R) in test [2] was found to be 0.058 nM.

B7: Compound 13 (peptide)
peptide: {C20 diacid-γGlu}-RDGTLTKATERLAHFLQRSSF[Sar]A[NMeI]LSSTEVGSNT[Hyp]-NH2
modifications: lactam 2-7
SMILES: CC[C@H](C)[C@@H](C(=O)N[C@@H](CC(C)C)C(=O)N[C@@H](CO)C(=O)N[C@@H](CO)C(=O)N[C@H](C(=O)N[C@@H](CCC(=O)O)C(=O)N[C@H](C(=O)NCC(=O)N[C@@H](CO)C(=O)N[C@@H](CC(N)=O)C(=O)N[C@H](C(=O)N1C[C@H](O)C[C@H]1C(N)=O)[C@@H](C)O)C(C)C)[C@@H](C)O)N(C)C(=O)[C@H](C)NC(=O)CN(C)C(=O)[C@H](Cc1ccccc1)NC(=O)[C@H](CO)NC(=O)[C@H](CO)NC(=O)[C@H](CCCNC(=N)N)NC(=O)[C@H](CCC(N)=O)NC(=O)[C@H](CC(C)C)NC(=O)[C@H](Cc1ccccc1)NC(=O)[C@H](Cc1c[nH]cn1)NC(=O)[C@H](C)NC(=O)[C@H](CC(C)C)NC(=O)[C@H](CCCNC(=N)N)NC(=O)[C@H](CCC(=O)O)NC(=O)[C@@H](NC(=O)[C@H](C)NC(=O)[C@@H]1CCCCNC(=O)C[C@H](NC(=O)[C@H](CCCNC(=N)N)NC(=O)CC[C@H](NC(=O)CCCCCCCCCCCCCCCCCCC(=O)O)C(=O)O)C(=O)NCC(=O)N[C@@H]([C@@H](C)O)C(=O)N[C@@H](CC(C)C)C(=O)N[C@@H]([C@@H](C)O)C(=O)N1)[C@@H](C)O
For the molecule B7, in test [1], the hAMYR3 EC50 [nM] (cAMP formation, 1321N1 cells expressing hAMYR3) amounted to 0.456 nM. In test [2], the hCT-R EC50 [nM] (cAMP formation, 1321N1 cells expressing hCT-R) was determined as 1.41 nM.
